This experiment has as its target S3. The experiment is described as follows: apparent affinity of recombinant chimeric mAb, cell binding.

B1: FZD10 (receptor)
chain: ISSMDMERPGDGKCQPIEIPMCKDIGYNMTRMPNLMGHENQREAAIQLHEFAPLVEYGCHGHLRFFLCSLYAPMCTEQVSTPIPACRVMCEQARLKCSPIMEQFNFKWPDSLDCRKLPNKNDPNYLCMEAPNNGSDEPTRGSGLFPPLFRPQRPHSAQEHPLKDGGPGRGGCDNPGKFHHVEKSASCAPLCTPGVDVYWSREDKRFAVVWLAIWAVLCFFSSAFTVLTFLIDPARFRYPERPIIFLSMCYCVYSVGYLIRLFAGAESIACDRDSGQLYVIQEGLESTGCTLVFLVLYYFGMASSLWWVVLTLTWFLAAGKKWGHEAIEANSSYFHLAAWAIPAVKTILILVMRRVAGDELTGVCYVGSMDVNALTGFVLIPLACYLVIGTSFILSGFVALFHIRRVMKTGGENTDKLEKLMVRIGLFSVLYTVPATCVIACYFYERLNMDYWKILAAQHKCKMNNQTKTLDCLMAASIPAVEIFMVKIFMLLVVGITSGMWIWTSKTLQSWQQVCSRRLKKKSRRKPASVITSGGIYKKAQHPQKTHHGKYEIPAQSPTCV
Take B1: the Kd is > 40 nM.

Values taken from patent US20130261012A1 (published 2013).
